Assay results as given in patent US10034836B2, “Formulations of guanylate cyclase C agonists and methods of use” (SYNERGY PHARMACEUTICALS, INC., priority 2008, dated 2018).
Where no end group is shown, it is not given here. [ ]: non-standard residue; d: D form.

What was measured:
intestinal GC-C receptor = molecular target: T1, intestinal GC-C receptor (Homo sapiens, UniProt P25092); assay: Cyclic GMP stimulation assay in T84 cells; assay type: cell-based; conditions: 30 min exposure (FIG. 5)
T1 construct: confluent monolayers of T-84 cells in 24-well plates; host or cells: T84 human colon carcinoma cells
T1 sequence (P25092 24-1073): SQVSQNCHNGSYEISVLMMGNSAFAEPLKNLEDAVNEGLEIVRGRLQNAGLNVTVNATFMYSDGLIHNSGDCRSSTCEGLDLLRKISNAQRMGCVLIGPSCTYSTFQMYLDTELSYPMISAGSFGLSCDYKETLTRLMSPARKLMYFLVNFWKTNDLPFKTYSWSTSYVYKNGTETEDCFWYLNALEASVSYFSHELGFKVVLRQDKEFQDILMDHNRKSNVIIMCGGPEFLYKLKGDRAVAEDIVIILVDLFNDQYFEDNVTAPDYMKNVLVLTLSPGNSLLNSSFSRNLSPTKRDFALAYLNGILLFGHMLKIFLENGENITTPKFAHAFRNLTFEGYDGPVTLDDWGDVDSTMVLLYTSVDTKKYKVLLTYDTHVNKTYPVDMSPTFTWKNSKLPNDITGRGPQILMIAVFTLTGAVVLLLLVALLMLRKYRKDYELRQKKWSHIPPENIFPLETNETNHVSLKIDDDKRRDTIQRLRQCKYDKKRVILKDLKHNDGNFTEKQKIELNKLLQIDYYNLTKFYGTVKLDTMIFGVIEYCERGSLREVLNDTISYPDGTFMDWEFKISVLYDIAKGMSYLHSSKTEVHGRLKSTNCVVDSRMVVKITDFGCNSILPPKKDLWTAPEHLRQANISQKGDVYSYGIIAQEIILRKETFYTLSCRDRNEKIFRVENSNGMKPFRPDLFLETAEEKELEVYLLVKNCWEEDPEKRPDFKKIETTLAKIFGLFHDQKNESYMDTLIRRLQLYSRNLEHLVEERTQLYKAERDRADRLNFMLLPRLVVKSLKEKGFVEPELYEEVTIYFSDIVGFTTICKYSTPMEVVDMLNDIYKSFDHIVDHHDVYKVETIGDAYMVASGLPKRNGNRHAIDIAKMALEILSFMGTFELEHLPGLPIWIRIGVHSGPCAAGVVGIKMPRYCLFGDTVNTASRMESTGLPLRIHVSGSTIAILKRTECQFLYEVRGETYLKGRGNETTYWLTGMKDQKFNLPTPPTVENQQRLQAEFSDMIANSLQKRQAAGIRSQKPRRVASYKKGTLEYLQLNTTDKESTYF
Description: FIG. 4: Biological activity of truncated peptides of 16-mer SP-304, as measured by stimulation of cGMP synthesis in T84 cells. SP-338 15-mer peptide is indentical to SP-304 except that it lacks Leu at the C-terminus. SP-327, SP-329 and SP-331 lack Leu at their C-termini relative to their corresponding parents, SP-326, SP-328 and SP-330, respectively. Data points shown are the average of duplicate measurements.
FIG. 5: Stimulation of cGMP synthesis in T84 cells by SP-304 and similar analogs. T84 cells were exposed to test peptides for 30 min and cell lysates were then used to determine intracellular cGMP levels. Data points shown are the average of triplicate measurements±SD.
FIG. 6: Stimulation of cGMP synthesis in T84 cells by SP-339 (linaclotide) and other linaclotide analogs. T84 cells were exposed to test peptides for 30 min and cell lysates were then used to determine intracellular cGMP levels. Data points shown are the average of triplicate measurements±SD.
FIG. 8: Stimulation of cGMP synthesis in T84 cells by the peggylated analogs of SP-333. T84 cells were exposed to the indicated peptides for 30 min and cell lysates were used to determine intracellular cGMP levels. Data points shown are the average of triplicate measurements±SD.
After the 30 min incubation, the medium was aspirated and the reaction was terminated by the addition of 3% perchloric acid. Following centrifugation and the addition of NaOH (0.1 N) to neutralize the pH, intracellular cGMP levels were determined in lysates using a cGMP ELISA kit (Cat. No. 581021; Cayman Chemical, Ann Arbor, Mich.). Peptide incubations were run in duplicate, and samples taken from each incubation were run as duplicates in the ELISA test.
The ability of the GCC agonist peptide to bind to and activate the intestinal GC-C receptor was tested using T84 human colon carcinoma cell line. Human T84 colon carcinoma cells were obtained from the American Type Culture Collection. Cells were grown in a 1:1 mixture of Ham's F-12 medium and Dulbecco's modified Eagle's medium (DMEM) supplemented with 10% fetal bovine serum, 100 U penicillin/ml, and 100 μg/ml streptomycin. The cells were fed fresh medium every third day and split at a confluence of approximately 80%.
Biological activity of the GCC agonist peptides was assayed as previously reported (Shailubhai, et al., Cancer Research 60, 5151-5157 (2000)). Briefly, the confluent monolayers of T-84 cells in 24-well plates were washed twice with 250 μl of DMEM containing 50 mM HEPES (pH 7.4), pre-incubated at 37° C. for 10 min with 250 μl of DMEM containing 50 mM HEPES (pH 7.4) and 1 mM isobutylmethylxanthine (IBMX), followed by incubation with GCC agonist peptides (0.1 nM to 10 µM) for 30 min. The medium was aspirated, and the reaction was terminated by the addition of 3% perchloric acid. Following centrifugation, and neutralization with 0.1 N NaOH, the supernatant was used directly for measurements of cGMP using an ELISA kit (Caymen Chemical, Ann Arbor, Mich.).
An additional strategy to render peptides more resistant towards digestion by digestive proteases is to peggylate them at the N- and C-terminus. The peptide SP-333 was peggylated with the aminoethyloxy-ethyloxy-acetic acid (Aeea) group at the C-terminus (SP-347) or at the N-terminus (SP-350) or at both termini (SP-343). Cyclic GMP synthesis in T84 cells was measured by the method as described above.

[1] = Stability in simulated intestinal fluid (SIF), HPLC analysis; assay type: in vitro ADME; conditions: SIF
Method: FIG. 2B: HPLC chromatographic spectra of SP-304 samples after incubation with: (A) heat-inactivated SIF for 300 minutes, or (B) SIF for 120 minutes. The arrows show the elution position of SP-304.
FIGS. 7D-1-7D-2: HPLC chromatograms of SP-304 incubated for 0 min in SIF (FIG. 7D-1) and 60 min in SIF (FIG. 7D-2), respectively. The arrows indicate the elution positions of the parent SP-304 peptides. […] These new peptide peaks represent degradation products of SP-304.
FIGS. 7E-1-7-E2: HPLC chromatograms of SP-332 incubated for 0 min in SIF (FIG. 7E-1) and 120 min in SIF (FIG. 7E-2), respectively. The arrows indicate the elution positions of the parent SP-332 peptides.
FIGS. 7F-1-7F-2: HPLC chromatograms of SP-333 incubated for 0 min in SIF (FIG. 7F-1) and 120 min in SIF (FIG. 7F-2), respectively. The arrows indicate the elution positions of the parent SP-333 peptides.
FIGS. 7G-1-7G-5: Incubation of SP-333 with SIF for 2, 6, 12 and 24 hrs. Effect of SIF digestion on the activity of SP-333 in T84 stimulation assay was determined (FIG. 7G-1) and samples were also analyzed by HPLC (FIGS. 7G2-5). The elution positions of the parent peptide and its metabolites are indicated by arrows.
The physical stability of SP-304 peptide exposed to SIF was evaluated by HPLC using the method described for SGF digestion. […]

[2] = Stability in simulated intestinal fluid (SIF), biological activity by cGMP synthesis in T84 cells; assay type: in vitro ADME; conditions: SIF, two hour incubation (FIG. 7A)
Method: FIG. 2A: Biological activity of SP-304 incubated for varying lengths of time in simulated intestinal fluid (SIF). SP-304 samples were incubated for 0, 30, 60, 90, 150, and 300 min, respectively, and then tested for their ability to stimulate cGMP synthesis in T84 cells. The cGMP stimulation activity in the sample at 0 min of incubation time in SIF was taken as 100% biological activity. The activities of the other SP-304 incubation samples were calculated as the percentage of activity relative to that of the 0 min sample. Data points shown are the average of triplicate measurements±SD.
(§1) FIG. 7A: Biological activity of SP-333 incubated for varying lengths of time in simulated intestinal fluid (SIF). SP-333 samples incubated for 0, 5, 10, 30, 60, and 120 min, respectively, were tested for their ability to stimulate cGMP synthesis in T84 cells. The control sample marked as C120 was produced by incubating SP-333 with heat inactivated SIF for 120 min. Samples from the incubations were removed and heated at 95° C. for 5 min to inactivate digestive enzymes and then used to stimulate cyclic GMP synthesis in T84 cells. The cGMP stimulation activity in the sample at 0 min of incubation time in SIF was taken as 100% biological activity. The activities of the other SP-304 incubation samples were calculated as the percentage of activity relative to that of the 0 min sample. Data points shown are the average of triplicate measurements±SD.
as §1, with “FIG. 7B:” for “FIG. 7A:”, “of SP-332” for “of SP-333”, “incubating SP-332” for “incubating SP-333”
FIG. 7C: Biological activity of SP-304 incubated for varying lengths of time in simulated intestinal fluid (SIF). SP-304 samples incubated for 0, 10, and 60 min, respectively, were tested for their ability to stimulate cGMP synthesis in T84 cells. The control samples marked as C0 and C60 were produced by incubating SP-304 with heat inactivated SIF for 0 and 60 min, respectively. Samples from the incubations were removed and heated at 95° C. for 5 min to inactivate digestive enzymes and then used to stimulate cyclic GMP synthesis in T84 cells. The cGMP stimulation activity in the sample at 0 min of incubation time in SIF was taken as 100% biological activity. The activities of the other SP-304 incubation samples were calculated as the percentage of activity relative to that of the 0 min sample. […]
FIGS. 7G-1-7G-5: Incubation of SP-333 with SIF for 2, 6, 12 and 24 hrs. Effect of SIF digestion on the activity of SP-333 in T84 stimulation assay was determined (FIG. 7G-1) and samples were also analyzed by HPLC (FIGS. 7G2-5). […]
The stability of SP-304 was also evaluated after incubation with simulated intestinal fluid (SIF) by measuring its biological activity and by HPLC analyses (FIGS. 2A & 2B). […]

T84 cells = assay: cGMP synthesis in T84 cells, GCC agonist alone or in combination with PDE inhibitors; assay type: cell-based, human; conditions: 100 μM, 30 min
Method: FIG. 9: Stimulation of cGMP synthesis in T84 cells by SP-304 (0.1 μM) either alone or in combination with the phosphodiesterase (PDE) inhibitors Sulindac Sulfone (100 μM) or Zaprinast (100 μM). T84 cells were exposed to various treatments, as indicated, for 30 min and the cell lysates were used to determine the intracellular cGMP levels. Data points shown are the average of duplicate measurements.
FIG. 10: Stimulation of cGMP synthesis in T84 cells by SP-304 (0.1 or 1.0 μM) either alone or in combination with incremental concentrations of phosphodiesterase (PDE) inhibitors, as indicated. T84 cells were exposed to various treatments, as indicated, for 30 min and the cell lysates were used to determine the intracellular cGMP levels. Data points shown are the average of duplicate measurements. […]
SS and ZAP in combination with SP-304 or SP-333 were evaluated to see if these PDE inhibitors had any synergistic effects on intracellular accumulation of cGMP (FIG. 9-12). […]
For the results shown in FIG. 9, cyclic GMP synthesis in T84 cells was assessed essentially as described in Shailubhai et al., Cancer Research 60, 5151-5157 (2000). […] Following centrifugation and the addition of NaOH (0.1 N) to neutralize the pH, intracellular cGMP levels were determined in lysates using a cGMP ELISA kit (Cat. No. 581021; Cayman Chemical, Ann Arbor, Mich.). […]

Molecule | ability to stimulate cGMP synthesis in T84 cells relative to SP-304 (intestinal GC-C receptor) | HPLC analysis of parent peptide after incubation with SIF ([1]; 120 min) | degradation in SIF ([1]; up to 24 hours (FIG. 7G)) | biological activity remaining after incubation in SIF [2] | intracellular accumulation of cGMP, PDE inhibitor alone (T84 cells)
dAsn^1-Asp^2-Glu^3-Cys^4-Glu^5-Leu^6-Cys^7-Val^8-Asn^9-Val^10-Ala^11-Cys^12-Thr^13-Gly^14-Cys^15-dLeu^16 ([dN]DECELCVNVACTGC[dL]; disulfide (positions not given here); also: two disulfides, pairing not given here) [SP-333] | comparable ability | remained virtually intact | very little degradation | ~100% | 
CC1=C(CC(=O)O)c2cc(F)ccc2/C1=C\c1ccc(S(C)(=O)=O)cc1 [Sulindac Sulfone] |  |  |  |  | did not enhance
